Drawing on patent US20120121633A1, “HIV CD4 BINDING SITE BASED COVALENT IMMUNOGEN COMPOSITIONS” (priority 2010, published 2012), this text covers A490 (MAb binding of HIV in the absence of competitors) for 3 substances.

The target in test [1] is gp120 on intact HIV virions (strain MN) (HIV strain MN) (UniProt P05877). The test can be described thus: MAb (7.5 µg/ml) with intact HIV virions, complexes captured on Protein G, p24 ELISA. Background: ELISA stands for enzyme-linked immunosorbent assay.
For test [2] the target is unchanged. The test can be described thus: MAb (0.8 µg/ml) with intact HIV virions, complexes captured on Protein G, p24 ELISA.
Test [3] has the same target. The test can be described thus: MAb (45 µg/ml) with intact HIV virions, complexes captured on Protein G, p24 ELISA.

MAb 2G12 (antibody) yielded an A490 (MAb binding of HIV in the absence of competitors) in test [1] of 0.246 A490.
In test [2], MAb 447-52D (antibody) returned an A490 (MAb binding of HIV in the absence of competitors) of 0.291 A490.
In turn, MAb clone b12 (antibody) showed an A490 (MAb binding of HIV in the absence of competitors) in test [3] of 0.176 A490.
